Measured values taken from patent US20240141042A1 (INNATE PHARMA, published 2024).
Positions count from the first letter of the chain named. Where two headings read alike, the source gives them in different places.

What was measured:
NKp46 mutant 6 = biological target: T1, NKp46 mutant 6 (human, UniProt O76036 22-304); test: flow cytometry on HEK293T cells transfected with NKp46 mutant 6 (R101A, V102A), antibody titrated 0.001-1 ug/ml
T1 construct: Expressed in transfected HEK293T cells
T1 chain: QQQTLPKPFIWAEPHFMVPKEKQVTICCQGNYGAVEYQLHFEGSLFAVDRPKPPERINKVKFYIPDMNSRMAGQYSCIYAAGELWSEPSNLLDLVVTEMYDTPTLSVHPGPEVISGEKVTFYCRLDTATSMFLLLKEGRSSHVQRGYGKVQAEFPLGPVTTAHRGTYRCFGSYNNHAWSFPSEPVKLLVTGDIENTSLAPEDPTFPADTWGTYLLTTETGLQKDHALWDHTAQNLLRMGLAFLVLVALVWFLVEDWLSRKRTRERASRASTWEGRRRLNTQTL

NKp46 mutant Supp7 = biological target: T2, NKp46 mutant Supp7 (human, UniProt O76036 22-304); test: flow cytometry on HEK293T cells transfected with NKp46 mutant Supp7 (Y121A, Y194A; printed 'Mutant S7'), antibody titrated 0.001-1 ug/ml
T2 construct: Expressed in transfected HEK293T cells; also called supplementary mutant Supp7
T2 chain: T1 chain with A80R, A81V, Y100A, Y173A

[1] = biological target: T3, human NKp46 expressed at the cell surface (human, UniProt O76036 22-304); test: flow cytometry on HEK293T cells transfected with wild-type NKp46, antibody titrated 0.001-1 ug/ml
T3 construct: Wild-type NKp46 on cells (transfected cell lines or NK cells); also called cell line expressing the human NKp46 construct; NKp46 cell line

NKp46 mutant Supp6 = biological target: T4, NKp46 mutant Supp6 (human, UniProt O76036 22-304); test: flow cytometry on HEK293T cells transfected with NKp46 mutant Supp6 (E104A, L105A; printed 'Mutant S6'), antibody titrated 0.001-1 ug/ml
T4 construct: Expressed in transfected HEK293T cells; also called supplementary mutant Supp6
T4 chain: T1 chain with A80R, A81V, E83A, L84A

NKp46 mutant Supp8 = biological target: T5, NKp46 mutant Supp8 (human, UniProt O76036 22-304); test: flow cytometry on HEK293T cells transfected with NKp46 mutant Supp8 (P132A, E133A; printed 'Mutant S8'), antibody titrated 0.001-1 ug/ml
T5 construct: Expressed in transfected HEK293T cells; also called supplementary mutant Supp8
T5 chain: T1 chain with A80R, A81V, P111A, E112A

NKp46 mutant 19 = biological target: T6, NKp46 mutant 19 (human, UniProt O76036 22-304); test: flow cytometry on HEK293T cells transfected with NKp46 mutant 19 (I135A, S136A), antibody titrated 0.001-1 ug/ml
T6 construct: Expressed in transfected HEK293T cells
T6 chain: T1 chain with A80R, A81V, I114A, S115A

NKp46 mutant 2 = biological target: T7, NKp46 mutant 2 (human, UniProt O76036 22-304); test: flow cytometry on HEK293T cells transfected with NKp46 mutant 2 (K41S, E42A, E119A), antibody titrated 0.001-1 ug/ml
T7 construct: Expressed in transfected HEK293T cells
T7 chain: T1 chain with K20S, E21A, A80R, A81V, E98A
Protocol: All the anti-NKp46 antibodies were tested for their binding to each mutant by flow cytometry. A first experiment was performed to determine antibodies that lose their binding to one or several mutants at one concentration (10 μg/ml).

[2] = biological target: T3, human NKp46 expressed at the cell …; test: flow cytometry on HEK293T cells transfected with wild-type NKp46, antibody titrated 0.001-1 ug/ml; remark: listed apart in the source
[3] = biological target: T8, Human NKp46 recombinant proteins (human, UniProt O76036 22-258); test: SPR, bispecific captured on Protein-A chip
T8 construct: also called recombinant human NKp46 proteins
Protocol: SPR measurements were performed on a Biacore T100 apparatus (Biacore GE Healthcare) at 25° C. In all Biacore experiments HBS-EP+(Biacore GE Healthcare) and NaOH 10 mM served as running buffer and regeneration buffer respectively. Sensorgrams were analyzed with Biacore T100 Evaluation software. Protein-A was purchase from (GE Healthcare). Human NKp46 recombinant proteins were cloned, produced and purified at Innate Pharma.
Protein-A proteins were immobilized covalently to carboxyl groups in the dextran layer on a Sensor Chip CM5. The chip surface was activated with EDC/NHS (N-ethyl-N′-(3-dimethylaminopropyl) carbodiimidehydrochloride and N-hydroxysuccinimide (Biacore GE Healthcare)). Protein-A was diluted to 10 μg/ml in coupling buffer (10 mM acetate, pH 5.6) and injected until the appropriate immobilization level was reached (i.e. 2000 RU). Deactivation of the remaining activated groups was performed using 100 mM ethanolamine pH 8 (Biacore GE Healthcare).

Measured: binding result

B1: NKp46-6 (antibody, V domains shown)
VH: QVQLQQPGSVLVRPGASVKLSCKASGYTFTSSWMHWAKQRPGQGLEWIGHIHPNSGISNYNEKFKGKATLTVDTSSSTAYVDLSSLTSEDSAVYYCARGGRFDDWGAGTTVTVSS
VL: DIVMTQSPATLSVTPGDRVSLSCRASQSISDYLHWYQQKSHESPRLLIKYASQSISGIPSRFSGSGSGSDFTLSINSVEPEDVGVYYCQNGHSFLMYTFGGGTKLEIK
notes: not in the list MOLECULES as an antibody; also called antibody NKp46-6; monoclonal antibody NKp46-6
not listed: [2] | [3]
binds: all other assays above

B2: NKp46-4 (antibody, V domains shown)
VH: QVQLQQSAVELARPGASVKMSCKASGYTFTSFTMHWVKQRPGQGLEWIGYINPSSGYTEYNQKFKDKTTLTADKSSSTAYMQLDSLTSDDSAVYYCVRGSSRGFDYWGQGTLVTVSA
VL: DIQMIQSPASLSVSVGETVTITCRASENIYSNLAWFQQKQGKSPQLLVYAATNLADGVPSRFSGSGSGTQYSLKINSLQSEDFGIYYCQHFWGTPRTFGGGTKLEIK
notes: also called Antibody NKp46-4
binds: [2] | NKp46 mutant 19

B3: CD19-F2-NKp46-3 (bispecific antibody)
chain 1: DIQLTQSPASLAVSLGQRATISCKASQSVDYDGDSYLNWYQQIPGQPPKLLIYDASNLVSGIPPRFSGSGSGTDFTLNIHPVEKVDAATYHCQQSTEDPWTFGGGTKLEIKGGGGSGGGGSGGGGSQVQLQQSGAELVRPGSSVKISCKASGYAFSSYWMNWVKQRPGQGLEWIGQIWPGDGDTNYNGKFKGKATLTADESSSTAYMQLSSLASEDSAVYFCARRETTTVGRYYYAMDYWGQGTTVTVSSGGGSSAPELLGGPSVFLFPPKPKDTLMISRTPEVTCVVVDVSHEDPEVKFNWYVDGVEVHNAKTKPREEQYNSTYRVVSVLTVLHQDWLNGKEYKCKVSNKALPAPIEKTISKAKGQPREPQVYTKPPSREEMTKNQVSLSCLVKGFYPSDIAVEWESNGQPENNYKTTVPVLDSDGSFRLASYLTVDKSRWQQGNVFSCSVMHEALHNHYTQKSLSLSPGSTGSEVQLQQSGPELVKPGASVKISCKTSGYTFTEYTMHWVKQSHGKSLEWIGGISPNIGGTSYNQKFKGKATLTVDKSSSTAYMELRSLTSEDSAVYYCARRGGSFDYWGQGTTLTVSSASTKGPSVFPLAPSSKSTSGGTAALGCLVKDYFPEPVTVSWNSGALTSGVHTFPAVLQSSGLYSLSSVVTVPSSSLGTQTYICNVNHKPSNTKVDKRVEPKSCDKTH
chain 2: DIVMTQSPATLSVTPGDRVSLSCRASQSISDYLHWYQQKSHESPRLLIKYASQSISGIPSRFSGSGSGSDFTLSINSVEPEDVGVYYCQNGHSFPLTFGAGTKLELKRTVAAPSVFIFPPSDEQLKSGTASVVCLLNNFYPREAKVQWKVDNALQSGNSQESVTEQDSKDSTYSLSSTLTLSKADYEKHKVYACEVTHQGLSSPVTKSFNRGEC
notes: Heterodimer with monomeric Fc; also called bi-specific antibody NKp46-3 (F2)
binds: [3]
